Here are results for one molecule from patent publication US20160017348A1.

In this assay the target is H3K4AK9me2 peptide (UniProt P59226). As to the kind of experiment: ITC; reference is the H3K9me2 peptide.

B1: SHH1 SAWADEE domain (residues 125-258) (protein)
chain: ADLAFEAKSARDYAWYDVSSFLTYRVLRTGELEVRVRFSGFDNRHDEWVNVKTSVRERSIPVEPSECGRVNVGDLLLCFQEREDQALYCDGHVLNIKRGIHDHARCNCVFLVRYELDNTEESLGLERICRRPEE
B1: the fold weaker affinity than with the H3K9me2 peptide came out at 30 fold.
